Article PMC13186983
Values belong to the substance of their own block, whether it stands above or below them.

Key:
[1] = target: wild-type 26S proteasome, reconstituted, LD655 acceptor-labeled on Rpt1, biotinylated core (S. cerevisiae | yeast) (UniProt P33299)
[2] = target: YA6-mutant 26S proteasome, reconstituted, LD655 acceptor-labeled on Rpt1, biotinylated core (S. cerevisiae | yeast) (UniProt P33299)
[3] = target: YA4-mutant 26S proteasome, reconstituted, LD655 acceptor-labeled on Rpt1, biotinylated core (S. cerevisiae | yeast) (UniProt P33299)
[4] = target: T1, Rpt3 (ATPase subunit of the yeast 26S proteasome) (S. cerevisiae) (UniProt P33298)
T1 sequence: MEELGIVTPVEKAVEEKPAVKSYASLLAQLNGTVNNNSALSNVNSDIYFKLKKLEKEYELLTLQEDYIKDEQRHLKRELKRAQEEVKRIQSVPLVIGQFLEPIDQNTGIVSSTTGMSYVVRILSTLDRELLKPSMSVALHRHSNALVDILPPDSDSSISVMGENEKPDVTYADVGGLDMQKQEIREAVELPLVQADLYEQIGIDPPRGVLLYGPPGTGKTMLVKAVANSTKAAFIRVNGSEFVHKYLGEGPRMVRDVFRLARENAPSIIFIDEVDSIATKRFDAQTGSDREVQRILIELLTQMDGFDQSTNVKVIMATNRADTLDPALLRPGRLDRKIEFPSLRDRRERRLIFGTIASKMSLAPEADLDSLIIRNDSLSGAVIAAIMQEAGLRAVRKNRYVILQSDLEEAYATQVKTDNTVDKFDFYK

[5] = target: wild-type 26S proteasome, reconstituted, LD655 acceptor-labeled on Rpt1, biotinylated core (S. cerevisiae | yeast) (UniProt P33299); remark: listed apart in the source
[6] = target: YA6-mutant 26S proteasome, reconstituted, LD655 acceptor-labeled on Rpt1, biotinylated core (S. cerevisiae | yeast) (UniProt P33299); remark: listed apart in the source
[7] = target: YA4-mutant 26S proteasome, reconstituted, LD655 acceptor-labeled on Rpt1, biotinylated core (S. cerevisiae | yeast) (UniProt P33299); remark: listed apart in the source
[8] = target: T1, Rpt3 (ATPase subunit of the yeast 26S proteasome) (S. cerevisiae); remark: listed apart in the source

Substance: Rpt6 K141A (from UniProt Q01939 1-405) (natural protein)
basal ATPase rate of the reconstituted proteasome with Rpt6 K141A (NADH-coupled assay) [4]: 87 min⁻¹

Substance: Rpt6 with the pore-1 loop Tyr to Ala mutation (YA6) (from UniProt Q01939 1-405) (natural protein)
basal ATPase rate of the reconstituted YA6 proteasome (NADH-coupled assay) [8]: 101 min⁻¹

Continued, values first:

combined time constant for substrate binding, tail insertion and engagement; bulk stopped-flow FRET, Cy3-labeled proteasome with oPA, 2 µM Cy5-labeled substrate, 25 °C [1]: 6.8 s | combined time constant for substrate binding, tail insertion and engagement; bulk stopped-flow FRET, Cy3-labeled proteasome with oPA, 2 µM Cy5-labeled substrate, 25 °C [2]: 18 s | combined time constant for substrate binding, tail insertion and engagement; bulk stopped-flow FRET, Cy3-labeled proteasome with oPA, 2 µM Cy5-labeled substrate, 25 °C [3]: 14.3 s
Substance: ubiquitinated titin I27^V15P substrate, LD555 donor-labeled (from UniProt P0CG63 1-76)

basal ATPase rate of the reconstituted proteasome with Rpt6 E140A (NADH-coupled assay) [4]: 108 min⁻¹
Substance: Rpt6 E140A (from UniProt Q01939 1-405) (natural protein)

frequency of terminal release of titin I27 during the unfolding dwell, single-molecule FRET [5]: 18.1% | frequency of terminal release of titin I27 during the unfolding dwell, single-molecule FRET [6]: 33.3% | frequency of terminal release of titin I27 during the unfolding dwell, single-molecule FRET [7]: 37.5%
Substance: ubiquitinated titin I27 substrate, LD555 donor-labeled (from UniProt P0CG63 1-76)
